Test results published in patent US7132258B1, “Nucleic acid encoding vitamin D receptor related polypeptide” (University of Massachusetts, priority 1998, dated 2006).

How the values were obtained:
RAR (full-length hRARα) = target: T1, RAR (full-length hRARα) (Homo sapiens, UniProt P10276); test: Yeast two-hybrid interaction with RAR; type: binding; details: β-galactosidase ONPG assay, 1 μM ligand or vehicle
T1 construct: RAR (full-length hRARα); expressed in transfected cells; host or cells: Saccharomyces cerevisiae Y190
T1 sequence (P10276 1-462): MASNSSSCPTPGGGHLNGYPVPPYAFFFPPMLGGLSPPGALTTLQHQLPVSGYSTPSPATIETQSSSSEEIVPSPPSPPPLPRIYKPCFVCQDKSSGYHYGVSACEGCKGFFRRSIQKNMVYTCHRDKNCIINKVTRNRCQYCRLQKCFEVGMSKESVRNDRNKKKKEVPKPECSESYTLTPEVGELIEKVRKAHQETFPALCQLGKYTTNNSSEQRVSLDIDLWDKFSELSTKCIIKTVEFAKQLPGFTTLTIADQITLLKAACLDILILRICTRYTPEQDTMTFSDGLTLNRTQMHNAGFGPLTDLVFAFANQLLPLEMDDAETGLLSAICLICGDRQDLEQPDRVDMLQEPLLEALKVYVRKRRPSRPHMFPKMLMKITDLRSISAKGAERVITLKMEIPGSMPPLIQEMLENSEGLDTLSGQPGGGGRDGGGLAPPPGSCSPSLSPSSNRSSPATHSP
T1 sequence (Q9Y6Q9 401-1204 E704Q partner limits assumed): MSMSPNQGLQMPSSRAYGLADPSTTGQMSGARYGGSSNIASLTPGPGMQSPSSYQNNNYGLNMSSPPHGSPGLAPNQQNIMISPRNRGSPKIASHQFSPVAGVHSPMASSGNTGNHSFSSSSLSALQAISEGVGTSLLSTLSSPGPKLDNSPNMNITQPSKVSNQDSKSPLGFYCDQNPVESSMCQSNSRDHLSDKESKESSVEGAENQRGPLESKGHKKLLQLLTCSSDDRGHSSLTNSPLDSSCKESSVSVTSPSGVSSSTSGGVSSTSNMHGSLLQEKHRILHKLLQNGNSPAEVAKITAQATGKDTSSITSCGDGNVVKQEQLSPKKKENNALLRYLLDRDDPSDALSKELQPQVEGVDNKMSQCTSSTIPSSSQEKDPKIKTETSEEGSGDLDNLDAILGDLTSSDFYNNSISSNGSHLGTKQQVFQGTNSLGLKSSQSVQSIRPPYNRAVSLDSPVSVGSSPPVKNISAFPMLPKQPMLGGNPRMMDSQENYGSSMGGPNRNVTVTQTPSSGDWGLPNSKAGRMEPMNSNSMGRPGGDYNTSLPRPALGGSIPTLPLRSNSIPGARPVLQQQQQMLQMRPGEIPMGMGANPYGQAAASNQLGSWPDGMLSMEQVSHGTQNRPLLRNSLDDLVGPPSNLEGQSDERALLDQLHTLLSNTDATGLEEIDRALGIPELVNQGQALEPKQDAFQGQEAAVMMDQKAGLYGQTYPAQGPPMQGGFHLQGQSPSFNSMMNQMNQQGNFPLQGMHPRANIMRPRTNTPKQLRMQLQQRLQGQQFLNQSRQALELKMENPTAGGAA
Method: The protein—protein interactions between RAC3 and several steroid/nuclear receptors were analyzed by the yeast two-hybrid system. The original two-hybrid clone, RAC3.1 in pGAD10 vector, was retransformed together with yeast expression vectors for Gal4 DBD fusion of selected hormone receptor genes into Y190 cells. The receptors used include RAR (full-length hRARα), RXR (full-length hRXRα), VDR (LBD of human Vitamin D receptor), PPAR (LBD of mPPARα), TR (LBD) of hTRβ), COUP (LBD of COUP-TFI). Three independent colonies from each transformation were selected and analyzed for expression of […] activities by liquid ONPG assay (FIG. 6) after treatment with 1 μM of corresponding ligands (closed bars), or with equal concentration of vehicle alone (open bars). […] The ligands used in these experiments were atRA, VitD3 (1,25-dihydroxyvitamin D3), and Wy (Wy 14,642). […] In the absence of ligand, RAC3 can interact with RAR and PPAR.

histone = test: Histone acetyltransferase (HAT) activity; type: biochemical; details: compared with the p/CAF; unpublished data
[1] = target: T2, Gal4 DBD fusion of the LBD of hRARα (Homo sapiens, UniProt P10276); test: Coactivation of Gal-RAR on Gal4-tk-Luc reporter in A549 cells; type: cell-based; details: overexpression of RAC3, 100 nM atRA, 24 hours
T2 construct: Gal4 DBD fusion of the LBD of hRARα (Gal-RAR); expressed in transfected cells; host or cells: A549 human lung carcinoma cells
T2 sequence (Q9Y6Q9 with tags, fused parts or gaps isoform Q9Y6Q9-5 D131E/G132A/T187P/E704Q/DEL1268-1272 partner, one chain of several): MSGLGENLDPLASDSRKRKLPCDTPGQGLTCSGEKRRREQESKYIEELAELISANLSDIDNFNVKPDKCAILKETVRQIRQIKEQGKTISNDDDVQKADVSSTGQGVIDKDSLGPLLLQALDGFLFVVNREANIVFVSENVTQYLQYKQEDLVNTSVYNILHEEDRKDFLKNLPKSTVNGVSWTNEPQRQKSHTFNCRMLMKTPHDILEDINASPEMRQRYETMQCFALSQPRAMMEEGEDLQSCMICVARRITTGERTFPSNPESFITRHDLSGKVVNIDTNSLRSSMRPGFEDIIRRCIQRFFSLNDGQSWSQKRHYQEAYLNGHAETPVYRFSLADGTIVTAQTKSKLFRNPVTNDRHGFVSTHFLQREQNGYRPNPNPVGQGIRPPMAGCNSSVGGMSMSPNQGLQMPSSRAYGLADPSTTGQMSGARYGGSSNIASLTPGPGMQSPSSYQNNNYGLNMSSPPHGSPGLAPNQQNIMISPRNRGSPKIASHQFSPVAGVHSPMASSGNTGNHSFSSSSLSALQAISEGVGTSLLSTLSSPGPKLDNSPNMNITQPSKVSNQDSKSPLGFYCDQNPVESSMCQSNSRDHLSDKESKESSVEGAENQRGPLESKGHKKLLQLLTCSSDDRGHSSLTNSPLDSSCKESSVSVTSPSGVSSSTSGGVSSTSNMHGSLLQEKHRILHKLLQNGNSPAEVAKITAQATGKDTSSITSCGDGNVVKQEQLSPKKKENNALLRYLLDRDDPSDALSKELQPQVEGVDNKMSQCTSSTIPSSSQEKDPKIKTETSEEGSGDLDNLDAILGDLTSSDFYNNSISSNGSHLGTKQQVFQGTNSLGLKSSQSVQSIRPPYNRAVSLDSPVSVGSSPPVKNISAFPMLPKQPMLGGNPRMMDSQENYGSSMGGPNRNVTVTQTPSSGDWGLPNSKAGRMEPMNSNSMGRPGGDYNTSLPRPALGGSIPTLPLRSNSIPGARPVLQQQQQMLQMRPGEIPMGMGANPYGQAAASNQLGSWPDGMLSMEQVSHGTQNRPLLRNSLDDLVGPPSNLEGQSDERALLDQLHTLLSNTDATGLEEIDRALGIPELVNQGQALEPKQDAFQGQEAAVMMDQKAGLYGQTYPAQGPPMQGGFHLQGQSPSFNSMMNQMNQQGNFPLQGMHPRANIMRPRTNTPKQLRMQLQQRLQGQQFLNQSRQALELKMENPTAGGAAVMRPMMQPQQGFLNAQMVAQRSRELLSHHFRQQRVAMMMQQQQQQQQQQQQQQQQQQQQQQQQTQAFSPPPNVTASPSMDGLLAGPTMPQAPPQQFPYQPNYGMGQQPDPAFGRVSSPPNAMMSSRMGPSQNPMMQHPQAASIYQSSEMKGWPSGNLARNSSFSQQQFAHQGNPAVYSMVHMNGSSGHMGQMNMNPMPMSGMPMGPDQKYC
Method: Monkey kidney-derived CV-1 cells and human lung carcinoma A549 cells were grown in phenol-free DMEM medium supplemented with 10% charcoal-stripped fetal bovine serum (Gibco). One day before transfection, cells were seeded in 12-well plates at a density of 50,000 cells per well. A mixture of DNAs was prepared that contained 0.5 μg of expression vector, 0.5 μg of pCMX-βGal used as internal control for transfection efficiency, 1 μg of luciferase reporter, and 1.5 μg of carrier DNA (PGEM) in a final volume of 30 μl. The DNA solution was mixed dropwise with one volume of 0.5 M CaCl2 and two volumes of 2×BBS (50 mM N,N-bis(2-hydroxyethyl)-2-aminoethanesulfonic acid (BES; Calbiochem), 280 mM NaCl, 1.5 mM Na2HPO4, pH 6.95). DNA precipitates were allowed to form at room temperature for 10 minutes and applied evenly to the cell cultures. Cells were allowed to transfect for 12 hours, then the precipitates were removed by washing transfected cells twice with phosphate buffered saline (PBS). […]
Luciferase and β-galactosidase assays were used to analyze the cultures. […] The luciferase activities were determined with MLX microtiter plate luminometer (Dynex) using 100 μl of assay solution (0.1 M KPO4, 5 mM ATP, 10 mM MgCl2) and 100 μl of luciferin solution (0.01 M D-luciferin in 0.1 M KPO4, pH 7.8). […]

## RAC3: transcriptional coactivator of steroid/nuclear receptors, protein of about 1417 amino acids (SEQ ID NO:2); RAC3.1 is the two-hybrid clone, amino acids 401–1204
RAR (full-length hRARα)
  interaction with RAR: Ligand treatment enhanced these interactions
histone
  HAT activity: very weakly
[1]
  enhancement of ligand-dependent transcriptional activation by Gal4 DBD fusion of RAR: about two-fold
